In patent US20250152663A1, “COMPOSITION FOR PREVENTION OR TREATMENT OF DRY EYE DISEASE COMPRISING HAPLN1” (HAPLNSCIENCE INC., priority 2021, published 2025):

Columns and labels:
[1] = system: NFκB in human corneal epithelial cells; test: Western blot of NFκB activity under high osmotic pressure; format: cell-based; conditions: HCEC, 450 mOsM
Procedure: In addition, the activity of NFκB that is an important transcription factor in expression of the inflammatory factors was identified by Western blot analysis (FIG. 4B). Preparation of the experiment was performed under the same conditions of those of Cytokine array performed as described above and the ELISA was performed according to the manufacturer's instructions.

[2] = system: inflammatory factors (Interleukins, CCL/CXCL family, Chitinase 3-like 1) in human corneal epithelial cells; test: Human XL cytokine array of culture broth under high osmotic pressure; format: cell-based; conditions: HCEC, 450 mOsM, 24 hours
Procedure: As one of the effects the HAPLN1 protein-containing composition of the present disclosure on the relief of dry eye disease, an effect on the relief of inflammation was verified by using Human XL cytokine array (R&D Systems. ARY022B) based on expression levels of inflammatory factors (Interleukins, CCL/CXCL family, and […]).
First, the human corneal epithelial cells after 4th passage were seeded onto 6 wells and incubated for 24 hours under low osmotic pressure conditions (314 mOsM). Subsequently, the cells were incubated under high osmotic pressure conditions (450 mOsM) for 48 hours and treated with different concentrations (i.e., 10 μg/ml HAPLN 1 μl to 1 ml media->working concentration of 10 ng/ml) of the composition according to the present disclosure. Then, the cells were further incubated for 24 hours, and the culture broth was recovered therefrom, followed by an assay on the expression level of each marker by using Human XL cytokine array (R&D Systems. ARY022B). According to each of the graphs of FIG. 3B illustrating relative expression levels of the markers of the inflammatory factors in the different concentrations of the HAPLN1 protein, it was confirmed that secretion of inflammatory factors such as IL-6, IL-17A, CCL20, CXCL10, CCL5, CD54, and CD176 increased under the high osmotic pressure conditions (450 mOsM).

[3] = system: CD11 b in lacrimal glands; test: CD11 b immunofluorescence in lacrimal gland, mouse dry eye model; format: in vivo, C57BL/6; conditions: after 16 days of drug treatment
Procedure: In this example, expression of CD11 b was identified in lacrimal glands in order to identify in vivo anti-inflammatory effect of the HAPLN1 protein-containing composition of the present disclosure. That is, on the 2nd day after 16 days of drug treatment, eyes were enucleated and paraffin blocked. IHC-IF was performed on a section slide, and expression (green) of CD11 b was identified by using an Anti-CD11 b antibody. FIG. 13B is a graph illustrating quantified expression levels of FIG. 13A (FIG. 13B).

B1: hyaluronan and proteoglycan link protein 1 (HAPLN1) (protein, listed as Homo sapiens)
chain: MKSLLLLVLISICWADHLSDNYTLDHDRAIHIQAENGPHLLVEAEQAKVFSHRGGNVTLPCKFYRDPTAFGSGIHKIRIKWTKLTSDYLKEVDVFVSMGYHKKTYGGYQGRVFLKGGSDSDASLVITDLTLEDYGRYKCEVIEGLEDDTVVVALDLQGVVFPYFPRLGRYNLNFHEAQQACLDQDAVIASFDQLYDAWRGGLDWCNAGWLSDGSVQYPITKPREPCGGQNTVPGVRNYGFWDKDKSRYDVFCFTSNFNGRFYYLIHPTKLTYDEAVQACLNDGAQIAKVGQIFAAWKILGYDRCDAGWLADGSVRYPISRPRRRCSPTEAAVRFVGFPDKKHKLYGVYCFRAYN
phosphorylation of NFκB [1]: reduced
expression levels of the inflammatory factors, compared with untreated groups ([2]; 10 to 100 ng/ml): lower than that of untreated groups
expression levels of IL-17A, Fas ligand/CD178, FGF-7, FGF-19, Angiogenin, RBP-4, and Chitinase 3-like 1 [2]: reduced to the levels of normal cells
expression levels of various inflammatory factors, relative to normal group (1.0) [2]: decreased to the level of the normal group or less
expression level of CD11 b compared with Cyclosporine A [3]: reduced the expression level of CD11 b more than Cyclosporine A
expression of CD11 b in lacrimal glands [3]: decreased
